Data taken from patent US20250042970A1 (AURINIA PHARMACEUTICALS, published 2025).
Changes are numbered by the printed parent chain. Like-named read-outs stand apart in the source and are kept apart here. Values belong to the binder of their own block, whether it stands above or below them.

Tests used:
[1] = target: T1, FLAG-tagged human BAFF (human, UniProt Q9Y275 134-285, limits assumed); experiment: BIACORE SPR; NB = No binding
T1 construct: used in BIACORE (Ex. 9) and KINEXA (Ex. 11); also called huBAFF
Protocol: (§1) For human BAFF, cynomolgus monkey APRIL, and mouse APRIL measurements, mouse monoclonal antibody (IgG1) anti-FLAG M2 (Sigma Aldrich, Cat. No. F1804) was immobilized on CM3 sensor chips (GE Healthcare, Cat. No. BR-1005-41) according to the manufacturer's protocol. Antibody was diluted to 30 μg/ml in immobilization buffer (10 mM pH 5±0.20; GE Healthcare; GE Healthcare, Catalog No. BR-1003-51). […] Unreacted sites were quenched with 35 μl of 1M ethanolamine-HCl, pH 8.5 (GE Healthcare, GE Healthcare, Cat. No. BR-1000-50). This procedure typically yielded 3,000-4,000 response units (RU) of coupled antibody.
(§2) The fusion polypeptides were diluted in HBS-EP buffer and flowed over ligand-coated sensor chips. The variant BCMA-Ig and surrogate control fusion proteins were injected at three concentrations (1.5 nM, 15 nM, and 150 nM at 30 μl/min for 2 minutes per association phase) in a single binding cycle, followed by a 20 minute incubation with HBS-EP buffer containing no protein at the same flow rate. A similar protocol was followed for Z-TACI-Ig, except that the injections were at 4.5 nM, 45 nM, and 450 nM.
(§3) Using available information from the structures and published literature, several residues in BAv8-10 were targeted for substitution with conserved as well as non-conserved residues and their effect on BAFF and APRIL binding was assessed by BIACORE.

[2] = target: T2, FLAG-tagged cynomolgous APRIL (cynomolgus monkey, UniProt A0ACM8R0G4 110-250 (rhesus entry)); experiment: BIACORE SPR; NB = No binding
T2 construct: FLAG-tagged, expressed with TPA signal peptide; also called cyAPRIL
T2 sequence: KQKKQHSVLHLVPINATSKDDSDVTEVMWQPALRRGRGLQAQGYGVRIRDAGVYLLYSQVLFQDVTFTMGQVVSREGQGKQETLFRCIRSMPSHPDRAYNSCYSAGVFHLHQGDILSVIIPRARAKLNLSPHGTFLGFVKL
Protocol: as §1, §2, §3

[3] = target: T1, FLAG-tagged human BAFF; experiment: KinExA
Protocol: (§4) Equilibrium measurements were performed using FLAG-tagged, recombinant huBAFF and huAPRIL ligands. Fixed ligand concentrations of human BAFF or human APRIL were incubated with serial dilutions of the variant BCMA ECD-Ig fusion polypeptides, and free ligand was detected in a KINEXA 3200 Instrument. variant BCMA ECD-Ig fusion polypeptides were first diluted in equilibration buffer (1×PBS, pH 7.4, 1 mg/ml BSA) to a range of concentrations from 10 nM to 100 fM. The linear portion of the dilution series was typically 2-fold. Ligands were diluted in equilibration buffer to fixed concentrations ranging from 5 to 20 pM and then incubated with the variant BCMA-Ig dilutions in total reaction volumes ranging from 4.5 to 15 ml. Samples were incubated at room temperature for 48-72 hours to reach equilibrium. For each data point, a fresh column of 850 μl of bead slurry coated with Variant BAv-238475-Ig was introduced into the KINEXA flow cell. Equilibrated samples ranging from 1 to 5 ml reaction volume were injected at a flow rate of 0.25 ml/min. […] The DyLight 649 fluorescent signal was detected using the red filter set (620/30 nanometer excitation filter, 670/40 nanometer emission filter, 645 nanometer dichroic filter) on the KinExA instrument and converted to a voltage signal that was directly proportional to the concentration of free ligand in the equilibrated sample.
(§5) The various fusion proteins described above were expressed and purified as described previously (Examples 2 and 3 for the CET1019AS based plasmids and Examples 7 and 8 for the pcDNA based plasmids). […] The BAv9-1-Ig Fc proteins typically exist in solution as a dimeric fusion protein. The purified fusion proteins were assayed for binding activity using BIACORE (Example 9) and KINEXA (Example 11) assays.

[4] = target: T3, FLAG-tagged recombinant human APRIL (human, UniProt O75888 105-250); experiment: KinExA
T3 construct: KINEXA ligand; also called huAPRIL
T3 sequence: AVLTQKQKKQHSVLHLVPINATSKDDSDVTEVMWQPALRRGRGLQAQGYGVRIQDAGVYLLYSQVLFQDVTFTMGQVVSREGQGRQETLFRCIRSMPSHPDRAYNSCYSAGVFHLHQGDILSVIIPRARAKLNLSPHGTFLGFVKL
Protocol: as §4, §5

[5] = target: T1, FLAG-tagged human BAFF; experiment: KinExA; remark: listed apart in the source
Protocol: as §4
(§6) The standard kinetic exclusion assays and data analyses described above were performed on protein preparations of various variant BCMA ECD-Ig fusion polypeptides, as well as Z-TACI-Ig and [S40G]huBCMA ECD-Ig fusion polypeptides. FIG. 8A, FIG. 8B, and Table 4 summarize the binding data for representative variant BCMA ECD-Ig polypeptides and controls in molar concentrations of huBAFF or huAPRIL determined by KINEXA binding assays.

[6] = target: T3, FLAG-tagged recombinant human APRIL; experiment: KinExA; remark: listed apart in the source
Protocol: as §4, §6

[7] = target: T1, FLAG-tagged human BAFF; experiment: BIACORE SPR
Protocol: as §1, §2, §5

[8] = target: T2, FLAG-tagged cynomolgous APRIL; experiment: BIACORE SPR
Protocol: as §1, §2, §5

[9] = target: T1, FLAG-tagged human BAFF; experiment: KinExA; remark: listed apart in the source
Protocol: as §4
(§7) Table 5 provides the selectivities of exemplary variant BCMA polypeptides with respect to BAFF and APRIL.

[10] = target: T3, FLAG-tagged recombinant human APRIL; experiment: KinExA; remark: listed apart in the source
Protocol: as §4, §7

binding result [1]: no binding (tested: 150 nM)
binding result [2]: no binding (tested: 150 nM)
B1: BAv70-Ig (Fc fusion)
chain: AGQCSQNEYFDHLIRACQPCQLRCSSNTPPLTCQRYCNAGVTNSVKGTNA
notes: not shown: PIg18: human IgG2 Fc, Ser at Fc positions 4, 5, 11 (native Cys)

binding result [1]: no binding (tested: 150 nM)
binding result [2]: no binding (tested: 150 nM)
B2: BAv69-Ig (Fc fusion)
chain: B1 chain with I14V
notes: as for B1

binding result [1]: no binding (tested: 150 nM)
binding result [2]: no binding (tested: 150 nM)
B3: BAv77-Ig (Fc fusion)
chain: B1 chain with I14V, Q18I, L22V, R23T
notes: as for B1

Kd [3]: 0.085 pM
Kd [4]: 0.132 nM
Kd [5]: 0.0847 pM
fold improvement over control [5]: 2660 fold
Kd [6]: 0.132 nM
fold improvement over control [6]: 0.0012 fold
Kd [7]: 8.03 pM
Kd [8]: 0.773 nM
Selectivity for huBAFF (KD APRIL/KD BAFF) [9]: 1560 ratio
Selectivity for huAPRIL (KD BAFF/KD APRIL) [10]: 0.001 ratio
B4: BAv85-Ig (Fc fusion)
chain: B1 chain with I14V, Q18I, L22A
notes: also called BAv85 (2)-Ig; BAv85-pIg18; not shown: PIg18: human IgG2 Fc, Ser at Fc positions 4, 5, 11 (native Cys)

binding result [1]: no binding (tested: 150 nM)
binding result [2]: no binding (tested: 150 nM)
B5: BAv67-Ig (Fc fusion)
chain: B1 chain with H12S, I14V, L22V
notes: as for B1

Kd [3]: 0.246 pM
Kd [4]: 0.364 nM
Kd [5]: 0.246 pM
fold improvement over control [5]: 917 fold
Kd [6]: 0.364 nM
fold improvement over control [6]: 0.00044 fold
Kd [7]: 8.31 pM
Kd [8]: 2.06 nM
Selectivity for huBAFF (KD APRIL/KD BAFF) [9]: 1480 ratio
Selectivity for huAPRIL (KD BAFF/KD APRIL) [10]: 0.001 ratio
B6: BAv81-Ig (Fc fusion)
chain: B1 chain with H12P, I14V, Q18I, L22V
notes: also called BAv81 (2)-Ig; BAv81-pIg18; not shown: PIg18: human IgG2 Fc, Ser at Fc positions 4, 5, 11 (native Cys)
